The test system of the data set is ATP. The data set is described as follows: switch fluorescence ratio, 500 uM ATP over buffer (Cy3 cluster intensity, sum of 5 cycles each) (fold (ratio)); higher = stronger signal-on switching upon ATP binding; sequences stand for … in TCGTCGGCAGCGTCAGATGTGTATAAGAGACAGTTTTTTTTTTTTTTTTTTTTTTTTT…TC. The settings on record: aptamer strand: ATP DNA aptamer (quencher-CACCTGGGGGAGTATTGCGGAGGAAGG + anchor), 100 nM annealed; ATP concentration: 500 uM. The method in brief: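 Imaging in selection buffer was followed by imaging after 15 min with 500 uM ATP at 22 °C, for Cy3-labelled switching-strand clusters annealed to 100 nM quencher-labelled ATP aptamer on a modified Illumina MiSeq flow-cell. Five of these buffer/ATP cycles ran, separated by NaOH stripping and re-annealing. The fluorescence ratio per cluster is summed target-cycle over summed buffer-cycle Cy3 intensity, averaged per switch-domain sequence; clusters outside 100-1000 RFU were removed.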

± gives the standard deviation of the averaged measurements.
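Note: ATP exposure 15 min at 22 °C before imaging.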

Take TATGTGAGCA: the switch fluorescence ratio stood at 0.99 ± 0.014.

Consider CTGGGTCACA, for which the switch fluorescence ratio is 1.02 ± 0.011.

GCTTATCAGC: the switch fluorescence ratio was determined as 0.991 ± 0.013.

For the sequence TTGGCGGAGG, the switch fluorescence ratio was 1.007 ± 0.0058.

On to TTTTTACGTG, for which the switch fluorescence ratio stood at 0.969 ± 0.035.

In the case of GGGCGTCGTC, the switch fluorescence ratio was determined as 0.993 ± 0.052.

For GCTGGGACTT, the switch fluorescence ratio is 1.004 ± 0.0078.

Take GGTGGGTGTG: the switch fluorescence ratio worked out at 1 ± 0.036.

With GCGTAAGCGG, the switch fluorescence ratio came out at 0.981 ± 0.017.

With AGAAGATTGA, the switch fluorescence ratio is 0.999 ± 0.019.

Take AAGGCGGGTG: the switch fluorescence ratio is 1.01 ± 0.015.

As for GAACGATACA, the switch fluorescence ratio came to 1.334 ± 0.012.

TGGGGGTGGG: the switch fluorescence ratio was 1.02 ± 0.044.

As for TGTAGGGGCA, the switch fluorescence ratio amounted to 0.99 ± 0.014.

For CTGCTCACAC, the switch fluorescence ratio was 1.22 ± 0.046.

As to GCGGAGAGAG, the switch fluorescence ratio came out at 0.998 ± 0.019.

Consider CGTCTGTCGG, for which the switch fluorescence ratio was 1.03 ± 0.019.

Regarding CGGAATAGTG, the switch fluorescence ratio turned out to be 1.2 ± 0.039.

On to TTGAAAGGGC, for which the switch fluorescence ratio turned out to be 1.02 ± 0.019.

Turning to TACGTACGTT, the switch fluorescence ratio was 1.41 ± 0.062.

ATAAGGGGAG: the switch fluorescence ratio amounted to 0.999 ± 0.027.

As to AGTTTCGGTC, the switch fluorescence ratio was 1 ± 0.028.

Regarding TTGGTTGAGA, the switch fluorescence ratio came to 0.9939 ± 0.0071.

Turning to TTGTCGGCTT, the switch fluorescence ratio is 1.002 ± 0.0092.

On to CGGTACTTGG, for which the switch fluorescence ratio worked out at 0.967 ± 0.05.

In the case of GATAAAGGGT, the switch fluorescence ratio came out at 1.005 ± 0.0052.

Turning to GCAAGGGTGG, the switch fluorescence ratio was determined as 1 ± 0.038.

For AATGGAGGGA, the switch fluorescence ratio amounted to 0.974 ± 0.011.

On to AGGGGGTCGA, for which the switch fluorescence ratio worked out at 1.01 ± 0.035.

As for AGCGTTTGGG, the switch fluorescence ratio amounted to 1.0289 ± 0.001.

Turning to ATAGGCCTTG, the switch fluorescence ratio came to 1.01 ± 0.031.

TTATAAAGGT: the switch fluorescence ratio came to 1.03 ± 0.079.

TCGGGGCCGA: the switch fluorescence ratio amounted to 0.969 ± 0.01.

On to TGTTTTGTTG, for which the switch fluorescence ratio came to 0.99 ± 0.016.

Turning to GGGTAGGGGA, the switch fluorescence ratio was 1 ± 0.049.

Regarding GATCATCGGG, the switch fluorescence ratio was 0.995 ± 0.015.

As for ATTAGTAGAA, the switch fluorescence ratio stood at 0.995 ± 0.016.

On to TTGGGGGGTA, for which the switch fluorescence ratio is 0.987 ± 0.028.

As for TCAGGGTGAA, the switch fluorescence ratio came to 1.02 ± 0.041.

As for TAAAGAGAGC, the switch fluorescence ratio was 1.01 ± 0.097.

As for CTTTGGCAGA, the switch fluorescence ratio worked out at 1.03 ± 0.043.

In the case of ATTAGAAGAC, the switch fluorescence ratio was found to be 1 ± 0.027.

With CTTGACATGT, the switch fluorescence ratio is 0.976 ± 0.016.

Take GGCATTTTTT: the switch fluorescence ratio is 1 ± 0.031.

Regarding TTCGGTTGGG, the switch fluorescence ratio was 0.986 ± 0.029.

On to ACCCAAAATT, for which the switch fluorescence ratio was determined as 1.05 ± 0.033.

For GAGATAGAGG, the switch fluorescence ratio came to 1.006 ± 0.0087.

With TGTTTTTATA, the switch fluorescence ratio was determined as 1.005 ± 0.0091.

As for GATCCTTGGG, the switch fluorescence ratio worked out at 1.022 ± 0.0056.

Consider TTAGAGTATA, for which the switch fluorescence ratio worked out at 1 ± 0.00038.

In the case of TTGTTACACA, the switch fluorescence ratio worked out at 1.05 ± 0.043.

As to ATGAGAAGGC, the switch fluorescence ratio was 0.997 ± 0.038.

For AAGGTGTCGG, the switch fluorescence ratio is 0.9895 ± 0.0037.

With TGCATAGGGA, the switch fluorescence ratio came to 1.01 ± 0.035.

Take GGCTATTGAT: the switch fluorescence ratio was determined as 1.004 ± 0.0073.

As for AAGAGATACG, the switch fluorescence ratio is 1.04 ± 0.059.

For the sequence ATTGCTCGA, the switch fluorescence ratio was 0.993 ± 0.02.

With CTAAGCGGGA, the switch fluorescence ratio came to 1.05 ± 0.016.

Regarding GGTATGGGGA, the switch fluorescence ratio is 1 ± 0.022.

For the sequence CGGTACGACG, the switch fluorescence ratio came out at 0.94 ± 0.019.

Turning to AAGAGCGAGG, the switch fluorescence ratio is 0.945 ± 0.036.

For GGGGGAGACT, the switch fluorescence ratio came to 1 ± 0.051.

TAGTTTTGGA: the switch fluorescence ratio was determined as 0.988 ± 0.01.

Regarding GGAATTGATG, the switch fluorescence ratio came out at 1.04 ± 0.046.

Take TGGGAGGTTG: the switch fluorescence ratio amounted to 0.994 ± 0.04.

As for AGGAAATAGT, the switch fluorescence ratio came to 1.05 ± 0.059.

For the sequence CGATTTTTTT, the switch fluorescence ratio is 1.02 ± 0.05.

As for TAGTTTTGAA, the switch fluorescence ratio turned out to be 0.997 ± 0.072.

In the case of GGGAGATTGT, the switch fluorescence ratio was 0.999 ± 0.026.

On to TCTGTGCCTT, for which the switch fluorescence ratio was found to be 1.06 ± 0.069.

As to TTAGAGTGCA, the switch fluorescence ratio was determined as 1.02 ± 0.019.

ATTGAAGGGA: the switch fluorescence ratio is 1.018 ± 0.0059.

In the case of CGGCCCAAGG, the switch fluorescence ratio is 1.22 ± 0.022.

Turning to TTCGGCTGGG, the switch fluorescence ratio is 0.98 ± 0.034.

For the sequence ATCGGGGTCC, the switch fluorescence ratio amounted to 1.02 ± 0.019.

Take TGTTGGGTGC: the switch fluorescence ratio turned out to be 0.996 ± 0.037.

Regarding AGGGGCGGCG, the switch fluorescence ratio stood at 1.01 ± 0.061.

ACGAGGGCGT: the switch fluorescence ratio came out at 1.03 ± 0.017.

Consider CGGTAAAGCG, for which the switch fluorescence ratio stood at 0.9808 ± 0.0071.

Source of the values: the supplement of paper PMC10126150.
